Measurements reported in publication PMC12693511, “Processing of DNA single-strand breaks with oxidatively damaged ends by LIG1”.

Tests used:
[1] = target: T1, LIG1 EE/AA (C-terminal, Δ261) (UniProt P18858 262-919, E346A;E592A); assay: X-ray crystallography; AMP, pre-catalytic (DNA-AMP); EDTA, no metal added; BLI: 20 mM HEPES pH 7.4, 200 mM NaCl, 0.5% BSA, 0.05% Tween 20, 40 nM DNA loaded, sensors hydrated at 20 C; crystals: 20 mM Tris-HCl pH 7.0, 200 mM NaCl, 1 mM DTT, 1 mM EDTA, 1 mM ATP, 1.4:1 DNA:protein, 20 C; details: protein: recombinant, tags: 6xHis, nicked duplex, blunt outer ends
T1 sequence (P18858 262-919 E346A/E592A): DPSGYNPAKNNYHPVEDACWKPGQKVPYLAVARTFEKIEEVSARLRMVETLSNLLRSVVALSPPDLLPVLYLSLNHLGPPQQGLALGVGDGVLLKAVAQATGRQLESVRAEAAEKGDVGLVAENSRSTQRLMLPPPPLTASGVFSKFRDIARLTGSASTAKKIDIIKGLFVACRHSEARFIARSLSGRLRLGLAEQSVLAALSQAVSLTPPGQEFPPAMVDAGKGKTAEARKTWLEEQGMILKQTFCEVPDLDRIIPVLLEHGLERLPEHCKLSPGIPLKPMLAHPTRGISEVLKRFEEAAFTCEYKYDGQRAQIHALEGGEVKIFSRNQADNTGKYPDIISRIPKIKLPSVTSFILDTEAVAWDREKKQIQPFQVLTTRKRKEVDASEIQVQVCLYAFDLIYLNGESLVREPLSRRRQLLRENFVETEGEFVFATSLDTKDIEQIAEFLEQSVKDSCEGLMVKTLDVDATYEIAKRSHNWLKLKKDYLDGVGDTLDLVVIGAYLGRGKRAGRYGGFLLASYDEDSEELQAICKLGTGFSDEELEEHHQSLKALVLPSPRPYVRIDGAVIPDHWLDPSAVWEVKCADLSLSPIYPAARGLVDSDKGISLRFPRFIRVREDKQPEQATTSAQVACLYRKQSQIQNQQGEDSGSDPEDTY

LIG1 wild-type = LIG1 wild-type (UniProt P18858 262-919); assay: as above; details: protein: recombinant; tags: 6xHis; nicked duplex, blunt outer ends; 8-oxoG:C Watson-Crick pair at nick
Chain of LIG1 wild-type (P18858 262-919): as the sequence (P18858 262-919 E346A/E592A) above, with A85E, A331E counted along it

[2] = target: T1, LIG1 EE/AA (C-terminal, Δ261); assay: X-ray crystallography; post-catalytic, nick sealed; EDTA, no metal added; BLI: 20 mM HEPES pH 7.4, 200 mM NaCl, 0.5% BSA, 0.05% Tween 20, 40 nM DNA loaded, sensors hydrated at 20 C; crystals: 20 mM Tris-HCl pH 7.0, 200 mM NaCl, 1 mM DTT, 1 mM EDTA, 1 mM ATP, 1.4:1 DNA:protein, 20 C; details: protein: recombinant; tags: 6xHis; nicked duplex, blunt outer ends; 8-oxorG:A Hoogsteen pair; nick sealed in crystal

B1: nick 3'-8-oxorG:C (mixed)
DNA 1: GCTGATGCGTG
DNA 2: GTCGGAC
DNA 3: GTCCGACCACGCATCAGC
modifications: 8-oxo-riboG at 3' end of strand 1 (nt 11), rest DNA; 5'-phosphate on strand 2 (5'-AMP in crystal)
Question: Does B1 bind ([1]; 8-oxorG:C Watson-Crick pair at nick)?
Answer: binds

B2: nick 3'-8-oxodG:C (dsDNA)
DNA 1: GCTGATGCGTG
DNA 2: GTCGGAC
DNA 3: GTCCGACCACGCATCAGC
modifications: 8-oxodG at 3' end of strand 1 (nt 11); 5'-phosphate on strand 2 (5'-AMP in crystal)
Question: Does B2 bind ([1]; 8-oxoG:C Watson-Crick pair at nick)?
Answer: binds

Question: Does B2 bind (LIG1 wild-type)?
Answer: binds

B3: nick 3'-8-oxodG:A (dsDNA)
DNA 1: GCTGATGCGTG
DNA 2: GTCGGAC
DNA 3: GTCCGACAACGCATCAGC
modifications: 8-oxodG at 3' end of strand 1 (nt 11); 5'-phosphate on strand 2 (5'-AMP in crystal)
Question: Does B3 bind ([1]; 8-oxoG:A Hoogsteen pair at nick)?
Answer: binds

B4: nick 3'-8-oxorG:A (mixed)
DNA 1: GCTGATGCGTG
DNA 2: GTCGGAC
DNA 3: GTCCGACAACGCATCAGC
modifications: 8-oxo-riboG at 3' end of strand 1 (nt 11), rest DNA; 5'-phosphate on strand 2; strands 1 and 2 ligated in the crystal
Question: Does B4 bind [2]?
Answer: binds
